Molecular target: PTBP1 (Homo sapiens, UniProt P26599 1-557)
Test: EMSA; apparent Kd; tRNA competitor; EMSA, 10 uL: 6 uL DG buffer (20 mM Hepes-KOH pH 7.9, 20% glycerol, 80 mM K-glutamate, 0.2 mM EDTA, 0.2 mM PMSF), about 2.2 mM MgCl2, 0.05 mg/ml tRNA, RNaseOut
Conditions: protein: recombinant; label: 32P (alpha-32P UTP, internal)

Chain of PTBP1 (P26599 whole entry): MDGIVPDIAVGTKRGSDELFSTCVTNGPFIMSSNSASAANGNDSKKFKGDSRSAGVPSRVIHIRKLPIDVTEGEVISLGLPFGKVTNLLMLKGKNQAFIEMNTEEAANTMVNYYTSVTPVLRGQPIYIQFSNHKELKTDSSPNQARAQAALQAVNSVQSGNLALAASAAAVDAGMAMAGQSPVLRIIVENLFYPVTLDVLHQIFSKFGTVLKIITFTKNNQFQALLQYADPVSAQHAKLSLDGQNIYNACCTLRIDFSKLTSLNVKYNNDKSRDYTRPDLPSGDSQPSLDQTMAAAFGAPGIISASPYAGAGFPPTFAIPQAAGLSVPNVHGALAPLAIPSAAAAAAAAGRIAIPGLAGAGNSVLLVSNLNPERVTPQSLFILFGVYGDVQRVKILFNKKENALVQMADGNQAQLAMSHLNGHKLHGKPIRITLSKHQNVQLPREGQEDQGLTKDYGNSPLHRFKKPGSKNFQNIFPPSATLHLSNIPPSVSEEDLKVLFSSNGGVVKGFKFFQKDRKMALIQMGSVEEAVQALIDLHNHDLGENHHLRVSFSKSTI

B1: probe 10 (ssRNA)
RNA: GUGAGGGCUCUUUCUUCGUGGGACCGUAGAUAGGUAGCUGCUGCUGGUCUCACACUGUUCUCCCUACAG
  Kd: 73 nM
